From the supplement of paper PMC10567573

B1: DYRK1B (parent)
chain: RFQDLVLRMLEYEPAARISPLGAL
B2: DCTD (parent)
chain: VKGCSMYVALFPCNECAKLIIQAG

Variants of: B1
Experiment: protein stability index of a GFP-peptide fusion (GPS, HEK-293T) (PSI 1-6); higher = more stable
Conditions: c terminus: a fixed tail appended
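Further: lentivirally expressed fusions sorted by FACS into six bins by GFP to DsRed ratio, PSI derived from sequencing read proportions per bin multiplied by bin number.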

Variant | protein stability index
RFQDLVLRMLEYEPAARISGLGAL [P20G] | 2.01
RFQDLVLRMLEYEPAARISILGAL [P20I] | 2.64
RFQDLVLRMLEYEPAARISNLGAL [P20N] | 3.12
RFQDLVLRMLEYEPAARISQLGAL [P20Q] | 2.29
RFQDLVLRMLEYEPAARISSLGAL [P20S] | 2.53
RFQDLVLRMLEYEPAARISTLGAL [P20T] | 2.1
RFQDLVLRMLEYEPAARISVLGAL [P20V] | 3.27
RFQDLVLRMLEYEPAARISWLGAL [P20W] | 3.32
RFQDLVLRMLEYEPAARISYLGAL [P20Y] | 4.39
RFQDLVLRMLEYEPAARISPAGAL [L21A] | 1.75
RFQDLVLRMLEYEPAARISPCGAL [L21C] | 1.98
RFQDLVLRMLEYEPAARISPDGAL [L21D] | 1.78
RFQDLVLRMLEYEPAARISPEGAL [L21E] | 1.56
RFQDLVLRMLEYEPAARISPFGAL [L21F] | 1.36
RFQDLVLRMLEYEPAARISPHGAL [L21H] | 3.73
RFQDLVLRMLEYEPAARISPIGAL [L21I] | 2.48
RFQDLVLRMLEYEPAARISPKGAL [L21K] | 1.19
RFQDLVLRMLEYEPAARISPMGAL [L21M] | 1.68
RFQDLVLRMLEYEPAARISPPGAL [L21P] | 1.93
RFQDLVLRMLEYEPAARISPRGAL [L21R] | 1.77
RFQDLVLRMLEYEPAARISPSGAL [L21S] | 2.27

Variant | protein stability index
RFQDLVLRMLEYEPAARISPTGAL [L21T] | 2
RFQDLVLRMLEYEPAARISPVGAL [L21V] | 2.56
RFQDLVLRMLEYEPAARISPYGAL [L21Y] | 2.98
RFQDLVLRMLEYEPAARISPLAAL [G22A] | 2.95
RFQDLVLRMLEYEPAARISPLCAL [G22C] | 1.86
RFQDLVLRMLEYEPAARISPLDAL [G22D] | 2.68
RFQDLVLRMLEYEPAARISPLEAL [G22E] | 3.2
RFQDLVLRMLEYEPAARISPLFAL [G22F] | 2.04
RFQDLVLRMLEYEPAARISPLHAL [G22H] | 1.52
RFQDLVLRMLEYEPAARISPLIAL [G22I] | 2.49
RFQDLVLRMLEYEPAARISPLKAL [G22K] | 2.67
RFQDLVLRMLEYEPAARISPLLAL [G22L] | 2.02
RFQDLVLRMLEYEPAARISPLMAL [G22M] | 2.2
RFQDLVLRMLEYEPAARISPLTAL [G22T] | 3.41
RFQDLVLRMLEYEPAARISPLVAL [G22V] | 3.1
RFQDLVLRMLEYEPAARISPLWAL [G22W] | 2.76
RFQDLVLRMLEYEPAARISPLYAL [G22Y] | 1.71
RFQDLVLRMLEYEPAARISPLGDL [A23D] | 1.42
RFQDLVLRMLEYEPAARISPLGFL [A23F] | 1.59
RFQDLVLRMLEYEPAARISPLGGL [A23G] | 2.75
RFQDLVLRMLEYEPAARISPLGHL [A23H] | 2.52

Variant | protein stability index
RFQDLVLRMLEYEPAARISPLGKL [A23K] | 1.29
RFQDLVLRMLEYEPAARISPLGML [A23M] | 2.25
RFQDLVLRMLEYEPAARISPLGQL [A23Q] | 2.06
RFQDLVLRMLEYEPAARISPLGRL [A23R] | 2.45
RFQDLVLRMLEYEPAARISPLGTL [A23T] | 2.04
RFQDLVLRMLEYEPAARISPLGYL [A23Y] | 2.71
RFQDLVLRMLEYEPAARISPLGAA [L24A] | 2.93
RFQDLVLRMLEYEPAARISPLGAC [L24C] | 2.82
RFQDLVLRMLEYEPAARISPLGAD [L24D] | 2.29
RFQDLVLRMLEYEPAARISPLGAE [L24E] | 2.36
RFQDLVLRMLEYEPAARISPLGAF [L24F] | 1.95
RFQDLVLRMLEYEPAARISPLGAG [L24G] | 1.35
RFQDLVLRMLEYEPAARISPLGAH [L24H] | 2.36
RFQDLVLRMLEYEPAARISPLGAI [L24I] | 4.35
RFQDLVLRMLEYEPAARISPLGAK [L24K] | 1.31
RFQDLVLRMLEYEPAARISPLGAN [L24N] | 1.82
RFQDLVLRMLEYEPAARISPLGAP [L24P] | 1.6
RFQDLVLRMLEYEPAARISPLGAQ [L24Q] | 2.27
RFQDLVLRMLEYEPAARISPLGAS [L24S] | 2.08
RFQDLVLRMLEYEPAARISPLGAT [L24T] | 4.33

Variants of: B2
Experiment: as above
Conditions: c terminus: a fixed tail appended

Variant | protein stability index
AKGCSMYVALFPCNECAKLIIQAG [V1A] | 1.7
CKGCSMYVALFPCNECAKLIIQAG [V1C] | 2.61
EKGCSMYVALFPCNECAKLIIQAG [V1E] | 2.15
FKGCSMYVALFPCNECAKLIIQAG [V1F] | 3.94
GKGCSMYVALFPCNECAKLIIQAG [V1G] | 3.72
HKGCSMYVALFPCNECAKLIIQAG [V1H] | 1.54
IKGCSMYVALFPCNECAKLIIQAG [V1I] | 2.68
KKGCSMYVALFPCNECAKLIIQAG [V1K] | 3.98
MKGCSMYVALFPCNECAKLIIQAG [V1M] | 3.04
PKGCSMYVALFPCNECAKLIIQAG [V1P] | 2.74
SKGCSMYVALFPCNECAKLIIQAG [V1S] | 3.18
TKGCSMYVALFPCNECAKLIIQAG [V1T] | 3.12
WKGCSMYVALFPCNECAKLIIQAG [V1W] | 2.09
VDGCSMYVALFPCNECAKLIIQAG [K2D] | 2.7
VFGCSMYVALFPCNECAKLIIQAG [K2F] | 2.27
VHGCSMYVALFPCNECAKLIIQAG [K2H] | 2.42

Variant | protein stability index
VPGCSMYVALFPCNECAKLIIQAG [K2P] | 2.71
VRGCSMYVALFPCNECAKLIIQAG [K2R] | 2.54
VSGCSMYVALFPCNECAKLIIQAG [K2S] | 3.47
VTGCSMYVALFPCNECAKLIIQAG [K2T] | 3.52
VVGCSMYVALFPCNECAKLIIQAG [K2V] | 4.19
VWGCSMYVALFPCNECAKLIIQAG [K2W] | 3.93
VKACSMYVALFPCNECAKLIIQAG [G3A] | 2.9
VKCCSMYVALFPCNECAKLIIQAG [G3C] | 2.07
VKDCSMYVALFPCNECAKLIIQAG [G3D] | 3.8
VKFCSMYVALFPCNECAKLIIQAG [G3F] | 2.27
VKICSMYVALFPCNECAKLIIQAG [G3I] | 3.94
VKKCSMYVALFPCNECAKLIIQAG [G3K] | 2.53
VKMCSMYVALFPCNECAKLIIQAG [G3M] | 4.03
VKNCSMYVALFPCNECAKLIIQAG [G3N] | 3.06
VKPCSMYVALFPCNECAKLIIQAG [G3P] | 4.11
VKQCSMYVALFPCNECAKLIIQAG [G3Q] | 3.85
